Entries after “also recorded” stand apart in the source; their conditions may differ.
Experiments:
[1] = system: peptide pulsed T2 cells; assay: IFN-gamma ELISPOT: CTL line induced with Foxp3-9-252-WT against T2 cells pulsed with substituted peptide; assay type: cell-based, human; conditions: FIG. 7A, listed as Foxp3-9-252-9V
Experimental: IFN-gamma ELISPOT assay was performed using CTL line induced with Foxp3-9-252-WT peptide as responder cells and T2 cells pulsed Foxp3-9-252-WT or Foxp3-9-252-9V peptide as stimulator cells, respectively. T2 cells without peptide pulse were prepared as control. […] IFN-gamma ELISA assay was performed using CTL line induced with Foxp3-9-252-WT peptide as responder cells (1×10^5 cells/well) and Foxp3-9-252-WT (-solid circle-), Foxp3-9-252-9V (-open circle-) or HIV-A02 (-solid triangle-) peptide pulsed T2 cells as stimulator cells (1×10^4 cells/well). Peptide pulse of stimulator cells was conducted at 37 degree Celsius for 2 hours in each kind of peptide and peptide concentration.
(§1) To examine the specific CTL activity, IFN-gamma ELISPOT assay and IFN-gamma ELISA were performed. Briefly, peptide-pulsed A24-LCL, T2 cell (1×10^4/well) or the cells endogenously expressing Foxp3 and HLA molecule was prepared as a stimulator cells. Cultured CTL lines in 48 wells were used as a responder cells. IFN-gamma ELISPOT assay and IFN-gamma ELISA were performed under manufacture procedure.
And then the present inventers examined whether peptide-pulsed stimulator cells using these substitutions were recognized by CTLs generated with Foxp3-9-252-WT peptide.

[2] = target: T1, HLA-A2 molecule (Homo sapiens, UniProt P04439, D140Y/D185E/D98H/E176V/E277Q/G131W/G231S/I119V/I121R/I166T/I218V/L300P/L318F/N151K/N90K/P208A/P217A/Q86G/Q94H/R138H/R169H/T345S); assay: CTL induction with Foxp3-9-252 substitutions restricted HLA-A*0201; assay type: cell-based; conditions: FIG. 7C; for IFN-gamma production compared with the control: positive wells
T1 construct: peripheral blood mononuclear cells (PBMCs) isolated from normal volunteer (HLA-A*2402 and/or HLA-A*0201); endogenous in cells; host or cells: monocyte-derived dendritic cells of HLA-A*0201 volunteers; T2 cells as stimulators in the read-out
Experimental: (§2) In FIG. 7C CTLs could be induced by stimulation with Foxp3-9-252 substitutions targeted HLA-A2 molecule. CTLs for all substituted peptides targeted HLA-A2 molecule were generated in the way as described in “Materials and Methods”. […] CTL line induced with Foxp3-9-252-9V peptide was used as responder cells. T2 cells incubated with Foxp3-9-252-9V (-solid circle-) or Foxp3-9-252-WT (-open circle-) peptide and without any peptide (-open square-) were used as stimulator cells in this assay (1×10^4 cells/well).
Monocyte-derived dendritic cells (DCs) were used as antigen-presenting cells (APCs) to induce CTL responses against peptides presented on HLA. DCs were generated in vitro as described elsewhere (Horiguchi S. et al. Cancer Res. 59:2950-6). Specifically, peripheral blood mononuclear cells (PBMCs) isolated from normal volunteer (HLA-A*2402 and/or HLA-A*0201) with Ficoll-Plaque (Pharmacia) solution were separated by adherence to plastic tissue culture dish (Becton Dickinson) so as to enrich them for the monocyte fraction. The monocyte-enriched population was cultured in the presence of 1000 U/ml of GM-CSF (R&D System) and 1000 U/ml of IL-4 (R&D System) in AIM-V medium (Invitrogen) containing 2% heat-inactivated autologous serum (AS). After 7 days in the culture, the cytokine-generated DCs were pulsed with 20 mcg/ml of the synthesized peptides in the presence of 3 mcg/ml of beta2-microglobulin for 4 hrs at 20 degrees C. in AIM-V medium. These peptide-pulsed DCs were then inactivated with mitomycin C (MMC) (30 mcg/ml for 30 mins) and mixed at a 1:20 ratio with autologous CD8+ T cells, obtained by positive selection with CD8 Positive Isolation Kit (Dynal). These cultures were set up in 48-well plates (Corning); each well contained 1.5×10^4 peptide-pulsed DCs, 3×10^5 CD8+ T cells and 10 ng/ml of IL-7 (R&D System) in 0.5 ml of AIM-V/2% AS. Three days later, these cultures were supplemented with IL-2 (CHIRON) to a final concentration of 20 IU/ml. On day 7 and 14, the T cells were further restimulated with the peptide-pulsed autologous DCs. The DCs were prepared each time through the same procedure described above. CTL activity was tested against peptide-pulsed A24LCL cells or T2 cells after the 3rd round of peptide stimulation on day 21.
as §1
(§3) On the other hand, the present inventers attempted the induction of CTLs using all substitutions restricted HLA-A*0201 including Foxp3-9-252-9V peptide. […] After CTL line induced by stimulation with Foxp3-9-252-9V was established by in vitro expansion, the CTL activity was determined by using stimulator cells pulsed with Foxp3-9-252-WT or Foxp3-9-252-9V peptide.

[3] = system: peptide pulsed T2 cells; assay: CTL line induced with Foxp3-9-252-9V against peptide-pulsed T2 cells; assay type: cell-based, human; conditions: FIG. 7D, listed as Foxp3-9-252-9V
Experimental: as §2, §3

CTL induction by stimulation with substituted peptide [2]: CTLs were induced | IFN-gamma production compared with the control ([2]; listed as Foxp3-9-252-9V): showed IFN-gamma production | IFN-gamma production compared with the control ([2]; listed as Foxp3-A02-9-252-9V): peptide-dependent IFN-gamma production
Sequence: KLSAMQAHV (peptide vaccine) [SEQ ID NO 95]
IFN-gamma production of Foxp3-9-252-WT induced CTLs against peptide pulsed T2 cells [1]: produced IFN-gamma; also recorded: recognize the cells presenting Foxp3-9-252-9V peptide on HLA-A2 molecule | recognition of Foxp3-9-252-WT pulsed stimulator cells by CTLs induced with substituted peptide [3]: recognized stimulator cells pulsed Foxp3-9-252-WT peptide as equal to that pulsed Foxp3-9-252-9V peptide; also recorded: recognize stimulator cells coated with Foxp3-9-252-WT peptide
